Measured values published in article PMC6477179, “FIP200 Claw Domain Binding to p62 Promotes Autophagosome Formation at Ubiquitin Condensates” (Molecular Cell, 2019).
Blank lines part the entries; values can stand above or below the binder they belong to.

B5: GFP-FIP200 CTR aa 1429-1594 (domain or fragment, human, UniProt Q8TDY2 1429-1594, looked up)
chain: ADEGRVDSAMETSMMSVQENIHMLSEEKQRIMLLERTLQLKEEENKRLNQRLMSQSMSSVSSRHSEKIAIRDFQVGDLVLIILDERHDNYVLFTVSPTLYFLHSESLPALDLKPGEGASGASRRPWVLGKVMEKEYCQAKKAQNRFKVPLGTKFYRVKAVSWNKKV
notes: FIP200 (RB1CC1), human, C-terminal region, residues 1429-1594; source: E. coli Rosetta (DE3) pLysS, purified (HisTrap, TEV, SEC); not shown: His6, N-terminal, cleaved; GFP, N-terminal, kept

Legend:
[1] = target: the molecule itself; experiment: SEC with right-angle light scattering; 100 μl of 3 mg/ml FIP200 CTR on Superdex S75 10/300 with RALS-refractive index detector; 25 mM HEPES pH 7.5, 150 mM NaCl
[2] = target: the molecule itself; experiment: crystal structure; FIP200 Claw aa 1494-1594, SeMet crystal, 1.56 Å, space group C2221, one monomer in the asymmetric unit; 0.1 M HEPES pH 7.4, 2 M ammonium sulfate
[3] = target: B5; experiment: microscopy-based protein-protein interaction assay (bait on beads); GST-tagged bait on glutathione Sepharose 4B beads, 2-5 μM fluorescently labeled prey not washed away (equilibrium), 25 mM HEPES pH 7.5, 150 mM NaCl, 1 mM DTT, 30 min to 1 h at room temperature or 4°C; confocal or spinning disk microscopy; conditions: both partners purified
mCherry-p62 LIRmut = target: T1, mCherry-p62 LIRmut (human, UniProt Q13501 1-440, residues 335-338 are mutated to Ala); experiment: as above; conditions: both partners purified
T1 construct: p62/SQSTM1, human, full length, LIR motif mutated; also called the LIR mutant; source: E. coli, purified as previously described (Wurzer et al., 2015)

mCherry-p62 wt [4] = target: T2, mCherry-p62 wt (human, UniProt Q13501 1-440); experiment: as above; conditions: both partners purified
T2 construct: p62/SQSTM1, human, full length; also called full-length mCherry-p62 WT; source: E. coli, purified as previously described (Wurzer et al., 2015)

mCherry-p62 wt [5] = target: T2, mCherry-p62 wt; experiment: microscopy-based protein-protein interaction assay (bait on beads); GSH beads coated with GST-2x ubiquitin, excess washed off, incubated with mCherry-p62 (2 μM) and GFP-FIP200 CTR (5 μM) for 1 h, imaged by microscopy; conditions: both partners purified
[6] = target: T3, GFP-FIP200 CTR aa 1458-1594 (human, UniProt Q8TDY2 1458-1594); experiment: microscopy-based protein-protein interaction assay (bait on beads); GST-tagged bait on glutathione Sepharose 4B beads, 2-5 μM fluorescently labeled prey not washed away (equilibrium), 25 mM HEPES pH 7.5, 150 mM NaCl, 1 mM DTT, 30 min to 1 h at room temperature or 4°C; confocal or spinning disk microscopy; conditions: both partners purified
T3 construct: FIP200 (RB1CC1), human, C-terminal region, residues 1458-1594; also called GFP-FIP200 CTR WT; WT GFP-FIP200 CTR; source: E. coli Rosetta (DE3) pLysS, purified (HisTrap, TEV, SEC); not shown: His6, N-terminal, cleaved; GFP, N-terminal, kept

GFP-FIP200 CTR N1517F = target: T4, GFP-FIP200 CTR N1517F (human, UniProt Q8TDY2 1458-1594, N1517F); experiment: as above; conditions: both partners purified
T4 construct: FIP200 (RB1CC1), human, C-terminal region, residues 1458-1594; source: E. coli Rosetta (DE3) pLysS, purified (HisTrap, TEV, SEC); not shown: His6, N-terminal, cleaved; GFP, N-terminal, kept

[7] = target: T5, FITC-labeled full-length FIP200 (FITC-FIP200-MBP) (human, UniProt Q8TDY2 1-1594, FITC-LPETGG peptide joined to the N-terminal glycine by Δ59SortaseA (FITC on the N-terminus)); experiment: as above; conditions: both partners purified
T5 construct: FIP200 (RB1CC1), human, full length; pCAG vector; also called Gly-FIP200-MBP; source: HEK293-GnT1 suspension cells, purified (Glutathione Sepharose, TEV, amylose resin, Superose 6); not shown: GST, N-terminal, cleaved; MBP, C-terminal, kept

B1: FIP200 CTR (aa 1458-1594) (domain or fragment, human, UniProt Q8TDY2 1458-1594, looked up)
chain: RIMLLERTLQLKEEENKRLNQRLMSQSMSSVSSRHSEKIAIRDFQVGDLVLIILDERHDNYVLFTVSPTLYFLHSESLPALDLKPGEGASGASRRPWVLGKVMEKEYCQAKKAQNRFKVPLGTKFYRVKAVSWNKKV
notes: FIP200 (RB1CC1), human, C-terminal region, residues 1458-1594; source: E. coli Rosetta2 (DE3), purified (Ni-NTA, TEV, Superdex S75); not shown: His6, N-terminal, cleaved
stoichiometry N [1]: 2

B2: FIP200 Claw (aa 1494-1594) (domain or fragment, human, UniProt Q8TDY2 1494-1594, looked up)
chain: EKIAIRDFQVGDLVLIILDERHDNYVLFTVSPTLYFLHSESLPALDLKPGEGASGASRRPWVLGKVMEKEYCQAKKAQNRFKVPLGTKFYRVKAVSWNKKV
modifications: selenomethionine-substituted (crystal)
notes: FIP200 (RB1CC1), human, Claw domain, residues 1494-1594; one monomer in the asymmetric unit, dimer by a crystallographic 2-fold; also called isolated Claw domain; FIP200 Claw domain; source: E. coli BL21(DE3), purified (Ni-NTA, TEV, Superdex 75)
binding result [2]: binds

B3: GST-p62 aa334-356 (domain or fragment, human, UniProt Q13501 334-356, looked up)
chain: GDDDWTHLSSKEVDPSTGELQSL
notes: p62/SQSTM1, human, residues 334-356; also called pGEX-p62 aa334-356; source: E. coli Rosetta (DE3) pLysS, purified (GSTrap, SEC)
binding result [3]: binds

Binder: B5
binding result (mCherry-p62 wt [5]): binds

Other lines, results leading:

binding result (mCherry-p62 LIRmut): binds
binding result (mCherry-p62 wt [4]): binds
B4: GST-FIP200 CTR aa 1429-1594 (domain or fragment, human, UniProt Q8TDY2 1429-1594, looked up)
chain: ADEGRVDSAMETSMMSVQENIHMLSEEKQRIMLLERTLQLKEEENKRLNQRLMSQSMSSVSSRHSEKIAIRDFQVGDLVLIILDERHDNYVLFTVSPTLYFLHSESLPALDLKPGEGASGASRRPWVLGKVMEKEYCQAKKAQNRFKVPLGTKFYRVKAVSWNKKV
notes: FIP200 (RB1CC1), human, C-terminal region, residues 1429-1594; cloned in pGEX 4T1; also called FIP200 C-terminal region (CTR); source: E. coli Rosetta (DE3) pLysS, purified (GSTrap, SEC)

binding result [6]: binds
B6: GST-p62 FIR 3P (domain or fragment, human, UniProt Q13501 326-380, looked up)
chain: MESDNCSGGDDDWTHLSSKEVDPSTGELQSLQMPESEGPDDLDPDQEGPTGLKEA
notes: also called 3P (S365D, S366D, S370D); triple mutant; source: E. coli Rosetta (DE3) pLysS, purified (GSTrap, SEC)

binding result (GFP-FIP200 CTR N1517F): binds
binding result [7]: binds
binding result [6]: binds
B7: GST-p62 FIR 4P (domain or fragment, human, UniProt Q13501 326-380, looked up)
chain: MESDNCSGGDDDWTHLSSKEVDPDTGELQSLQMPESEGPDDLDPDQEGPTGLKEA
notes: also called 4P (S349D, S365D, S366D, S370D); quadruple mutant; source: E. coli Rosetta (DE3) pLysS, purified (GSTrap, SEC)
